According to patent publication US20260022153A1 (AMIDEBIO, LLC, priority 2017, published 2026):

Experiments:
IGF1 receptor (IGF1R) = IGF1 receptor (IGF1R) (Homo sapiens, UniProt P08069); test: Binding affinity of insulin analogs to the IGF1 receptor (IGF1R); details: in the absence of glucose
[1] = after one year in acidic formulations; cited from earlier work
insulin receptor = insulin receptor (Homo sapiens, UniProt P06213); details: cited from earlier work

| Substance | Kd (IGF1 receptor (IGF1R)) [nM] | AsnA21 deamidation [1] | fold lower affinity for the insulin receptor compared to wildtype insulin (insulin receptor) [fold] |
| --- | --- | --- | --- |
| SEQ ID NO: 5: single chain insulin analog […] (FVDQHLCGSHLVEALYLVCGERGFFYTPKTYDGKGIVEQCCTSICSLYQLENYCG) | 30.4 | – | – |
| insulin | 5.66 | 20-30% | – |
| Wakayama mutation ValA3Leu: insulin with a valine to leucine substitution at position A3 of Insulin Chain A, a naturally occurring mutation | – | – | 500 |
| SEQ ID NO: 7: single chain insulin analog […] (FVGQHLCGSHLVEALYLVCGERGFFYTPKTYDGKGIVEQCCTSICSLYQLENYCG) | 26.8 | – | – |
